# According to patent US20140087995A1 (published 2014):
# Numbered stars: 1 amine (or outer) side, 2 acyl side, 3 side chain; on linkers, the order of the positions; unused ones are H or OH. Bridge positions count the residues as written; N and C are the ends. Side chains are listed from the residue outwards. Ends that are not written are not given here. * marks the point of attachment. C20 diacid = O=C(O)CCCCCCCCCCCCCCCCCCC(=O)*; γGlu = O=C(O)[C@H](CCC(=O)[*:2])N[*:1]
# T1: human amylin receptor (amylin 3(a) receptor: human calcitonin receptor with RAMP-3) (human, UniProt P30988 25-474; O60896 24-148, limits assumed)
# T1 construct: whole, on cells; Whole cells in the luciferase assay (Assay II a); also called hAmylin-R; hAmylinR
# T1 sequence (looked up) 1: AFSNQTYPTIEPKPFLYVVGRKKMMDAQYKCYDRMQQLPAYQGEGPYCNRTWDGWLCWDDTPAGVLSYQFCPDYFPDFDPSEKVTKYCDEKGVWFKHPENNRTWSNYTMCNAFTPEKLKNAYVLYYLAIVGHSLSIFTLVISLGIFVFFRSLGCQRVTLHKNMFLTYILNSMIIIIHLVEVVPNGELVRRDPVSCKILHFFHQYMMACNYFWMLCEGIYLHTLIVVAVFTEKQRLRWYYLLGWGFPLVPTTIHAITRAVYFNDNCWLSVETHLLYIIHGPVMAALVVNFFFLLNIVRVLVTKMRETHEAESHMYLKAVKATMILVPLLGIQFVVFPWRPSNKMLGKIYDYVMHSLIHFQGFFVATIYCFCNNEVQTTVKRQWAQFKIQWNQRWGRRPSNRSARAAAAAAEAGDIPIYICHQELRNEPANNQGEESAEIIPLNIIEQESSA
# T1 sequence (looked up) 2: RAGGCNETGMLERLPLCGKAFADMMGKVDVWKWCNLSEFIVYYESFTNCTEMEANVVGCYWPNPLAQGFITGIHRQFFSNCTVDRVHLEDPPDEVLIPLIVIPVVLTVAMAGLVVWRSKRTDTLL
# T2: human calcitonin receptor (human, UniProt P30988 25-474)
# T2 sequence (looked up): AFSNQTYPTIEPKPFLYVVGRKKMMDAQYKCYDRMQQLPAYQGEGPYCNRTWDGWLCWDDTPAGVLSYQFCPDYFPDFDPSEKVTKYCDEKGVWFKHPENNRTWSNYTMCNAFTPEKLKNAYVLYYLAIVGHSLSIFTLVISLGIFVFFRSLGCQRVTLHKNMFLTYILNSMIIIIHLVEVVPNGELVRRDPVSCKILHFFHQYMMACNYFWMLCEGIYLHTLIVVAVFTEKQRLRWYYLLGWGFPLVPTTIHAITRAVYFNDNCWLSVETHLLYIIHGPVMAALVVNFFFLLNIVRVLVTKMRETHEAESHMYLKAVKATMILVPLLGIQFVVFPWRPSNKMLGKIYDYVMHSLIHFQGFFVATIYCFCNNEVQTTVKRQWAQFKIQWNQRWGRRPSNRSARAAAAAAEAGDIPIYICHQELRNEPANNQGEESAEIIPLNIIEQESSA
# Tests used:
# [1] = biological target: T1, human amylin receptor (amylin 3(a) …); test: SPA competition binding on membranes of BHK cells with human calcitonin receptor + RAMP-3; displacement of 125I-rat amylin (Assay V)
# How it was run: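 SPA beads + BHK amylin 3(a)/CRE-luc membranes, 35 ng/μL final; buffer 50 mM Hepes pH 7.4, 1 mM CaCl2, 5 mM MgCl₂, 0.1% OA, 0.02% Tween20. 120 min, 25° C, shaken; scintillation count. IC₅₀ by one-site binding competition fit, taken as receptor affinity.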
# [2] = biological target: T2, human calcitonin receptor; test: cell-based or functional assay
Binder,IC50 [1] [nM],Ratio hCT/hAmylin funct. [2] [ratio],hCTR funct. EC50 (pM) [2] [pM]
K([γGlu-C20 diacid])CNTATCATQRLAHFLRHSSPNFGAIPSSTPVGPNTY-NH2 (disulfide 2-7; N-terminus assumed; SMILES CC[C@H](C)[C@H](NC(=O)[C@H](C)NC(=O)CNC(=O)[C@H](Cc1ccccc1)NC(=O)[C@H](CC(N)=O)NC(=O)[C@@H]1CCCN1C(=O)[C@H](CO)NC(=O)[C@H](CO)NC(=O)[C@H](Cc1c[nH]cn1)NC(=O)[C@H](CCCNC(=N)N)NC(=O)[C@H](CC(C)C)NC(=O)[C@H](Cc1ccccc1)NC(=O)[C@H](Cc1c[nH]cn1)NC(=O)[C@H](C)NC(=O)[C@H](CC(C)C)NC(=O)[C@H](CCCNC(=N)N)NC(=O)[C@H](CCC(N)=O)NC(=O)[C@@H](NC(=O)[C@H](C)NC(=O)[C@@H]1CSSC[C@H](NC(=O)[C@@H](N)CCCCNC(=O)CC[C@H](NC(=O)CCCCCCCCCCCCCCCCCCC(=O)O)C(=O)O)C(=O)N[C@@H](CC(N)=O)C(=O)N[C@@H]([C@@H](C)O)C(=O)N[C@@H](C)C(=O)N[C@@H]([C@@H](C)O)C(=O)N1)[C@@H](C)O)C(=O)N1CCC[C@H]1C(=O)N[C@@H](CO)C(=O)N[C@@H](CO)C(=O)N[C@H](C(=O)N1CCC[C@H]1C(=O)N[C@H](C(=O)NCC(=O)N1CCC[C@H]1C(=O)N[C@@H](CC(N)=O)C(=O)N[C@H](C(=O)N[C@@H](Cc1ccc(O)cc1)C(N)=O)[C@@H](C)O)C(C)C)[C@@H](C)O),0.082,4.9,
K([γGlu-C20 diacid])CNTATCATQRLAHFLRHSSPNFGAIPSSTNVGPNTP-NH2 (disulfide 2-7; N-terminus assumed; SMILES CC[C@H](C)[C@H](NC(=O)[C@H](C)NC(=O)CNC(=O)[C@H](Cc1ccccc1)NC(=O)[C@H](CC(N)=O)NC(=O)[C@@H]1CCCN1C(=O)[C@H](CO)NC(=O)[C@H](CO)NC(=O)[C@H](Cc1c[nH]cn1)NC(=O)[C@H](CCCNC(=N)N)NC(=O)[C@H](CC(C)C)NC(=O)[C@H](Cc1ccccc1)NC(=O)[C@H](Cc1c[nH]cn1)NC(=O)[C@H](C)NC(=O)[C@H](CC(C)C)NC(=O)[C@H](CCCNC(=N)N)NC(=O)[C@H](CCC(N)=O)NC(=O)[C@@H](NC(=O)[C@H](C)NC(=O)[C@@H]1CSSC[C@H](NC(=O)[C@@H](N)CCCCNC(=O)CC[C@H](NC(=O)CCCCCCCCCCCCCCCCCCC(=O)O)C(=O)O)C(=O)N[C@@H](CC(N)=O)C(=O)N[C@@H]([C@@H](C)O)C(=O)N[C@@H](C)C(=O)N[C@@H]([C@@H](C)O)C(=O)N1)[C@@H](C)O)C(=O)N1CCC[C@H]1C(=O)N[C@@H](CO)C(=O)N[C@@H](CO)C(=O)N[C@H](C(=O)N[C@@H](CC(N)=O)C(=O)N[C@H](C(=O)NCC(=O)N1CCC[C@H]1C(=O)N[C@@H](CC(N)=O)C(=O)N[C@H](C(=O)N1CCC[C@H]1C(N)=O)[C@@H](C)O)C(C)C)[C@@H](C)O),0.131,0.8,
{C20 diacid-γGlu}-GRCNTATCATQRLAAFLRHSSPNFGAIPSSTNVGPNTY-NH2 (disulfide 3-8 (inferred)),0.114,2.1,
{C20 diacid-γGlu}-GRCNTATCATQRLAAFLRHSSPNFGAIPSSTNVGHNTY-NH2 (disulfide 3-8 (inferred)),0.426,4.9,
{C20 diacid-γGlu}-GRCNTATCATQRLAHFLRHSSPNFGAIPSSTNVGPNTY-NH2 (disulfide 3-8 (inferred)),0.217,2.9,

# Continued, values first:
IC50 [1] [nM],Ratio hCT/hAmylin funct. [2] [ratio],hCTR funct. EC50 (pM) [2] [pM],Binder
0.533,0.8,102,K([γGlu-γGlu-C20 diacid])CNTATCATQRLAEFLRHSSPNFGAIPSSTNVGPETP-NH2 (disulfide 2-7; N-terminus assumed; SMILES CC[C@H](C)[C@H](NC(=O)[C@H](C)NC(=O)CNC(=O)[C@H](Cc1ccccc1)NC(=O)[C@H](CC(N)=O)NC(=O)[C@@H]1CCCN1C(=O)[C@H](CO)NC(=O)[C@H](CO)NC(=O)[C@H](Cc1c[nH]cn1)NC(=O)[C@H](CCCNC(=N)N)NC(=O)[C@H](CC(C)C)NC(=O)[C@H](Cc1ccccc1)NC(=O)[C@H](CCC(=O)O)NC(=O)[C@H](C)NC(=O)[C@H](CC(C)C)NC(=O)[C@H](CCCNC(=N)N)NC(=O)[C@H](CCC(N)=O)NC(=O)[C@@H](NC(=O)[C@H](C)NC(=O)[C@@H]1CSSC[C@H](NC(=O)[C@@H](N)CCCCNC(=O)CC[C@H](NC(=O)CC[C@H](NC(=O)CCCCCCCCCCCCCCCCCCC(=O)O)C(=O)O)C(=O)O)C(=O)N[C@@H](CC(N)=O)C(=O)N[C@@H]([C@@H](C)O)C(=O)N[C@@H](C)C(=O)N[C@@H]([C@@H](C)O)C(=O)N1)[C@@H](C)O)C(=O)N1CCC[C@H]1C(=O)N[C@@H](CO)C(=O)N[C@@H](CO)C(=O)N[C@H](C(=O)N[C@@H](CC(N)=O)C(=O)N[C@H](C(=O)NCC(=O)N1CCC[C@H]1C(=O)N[C@@H](CCC(=O)O)C(=O)N[C@H](C(=O)N1CCC[C@H]1C(N)=O)[C@@H](C)O)C(C)C)[C@@H](C)O)
0.264,2.2,,"K([γGlu-γGlu-C20 diacid])CNTATCATQRLAEFLRHSSPNFGAIPSSTNVGSNTP-NH2 (disulfide 2-7; N-terminus assumed; SMILES CC[C@H](C)[C@H](NC(=O)[C@H](C)NC(=O)CNC(=O)[C@H](Cc1ccccc1)NC(=O)[C@H](CC(N)=O)NC(=O)[C@@H]1CCCN1C(=O)[C@H](CO)NC(=O)[C@H](CO)NC(=O)[C@H](Cc1c[nH]cn1)NC(=O)[C@H](CCCNC(=N)N)NC(=O)[C@H](CC(C)C)NC(=O)[C@H](Cc1ccccc1)NC(=O)[C@H](CCC(=O)O)NC(=O)[C@H](C)NC(=O)[C@H](CC(C)C)NC(=O)[C@H](CCCNC(=N)N)NC(=O)[C@H](CCC(N)=O)NC(=O)[C@@H](NC(=O)[C@H](C)NC(=O)[C@@H]1CSSC[C@H](NC(=O)[C@@H](N)CCCCNC(=O)CC[C@H](NC(=O)CC[C@H](NC(=O)CCCCCCCCCCCCCCCCCCC(=O)O)C(=O)O)C(=O)O)C(=O)N[C@@H](CC(N)=O)C(=O)N[C@@H]([C@@H](C)O)C(=O)N[C@@H](C)C(=O)N[C@@H]([C@@H](C)O)C(=O)N1)[C@@H](C)O)C(=O)N1CCC[C@H]1C(=O)N[C@@H](CO)C(=O)N[C@@H](CO)C(=O)N[C@H](C(=O)N[C@@H](CC(N)=O)C(=O)N[C@H](C(=O)NCC(=O)N[C@@H](CO)C(=O)N[C@@H](CC(N)=O)C(=O)N[C@H](C(=O)N1CCC[C@H]1C(N)=O)[C@@H](C)O)C(C)C)[C@@H](C)O, also called compound 13)"
0.142,1.8,,"K([γGlu-C20 diacid])CNTATCATQRLAEFLRHSSPNFGAIPSSTNVGSNTP-NH2 (disulfide 2-7; N-terminus assumed; SMILES CC[C@H](C)[C@H](NC(=O)[C@H](C)NC(=O)CNC(=O)[C@H](Cc1ccccc1)NC(=O)[C@H](CC(N)=O)NC(=O)[C@@H]1CCCN1C(=O)[C@H](CO)NC(=O)[C@H](CO)NC(=O)[C@H](Cc1c[nH]cn1)NC(=O)[C@H](CCCNC(=N)N)NC(=O)[C@H](CC(C)C)NC(=O)[C@H](Cc1ccccc1)NC(=O)[C@H](CCC(=O)O)NC(=O)[C@H](C)NC(=O)[C@H](CC(C)C)NC(=O)[C@H](CCCNC(=N)N)NC(=O)[C@H](CCC(N)=O)NC(=O)[C@@H](NC(=O)[C@H](C)NC(=O)[C@@H]1CSSC[C@H](NC(=O)[C@@H](N)CCCCNC(=O)CC[C@H](NC(=O)CCCCCCCCCCCCCCCCCCC(=O)O)C(=O)O)C(=O)N[C@@H](CC(N)=O)C(=O)N[C@@H]([C@@H](C)O)C(=O)N[C@@H](C)C(=O)N[C@@H]([C@@H](C)O)C(=O)N1)[C@@H](C)O)C(=O)N1CCC[C@H]1C(=O)N[C@@H](CO)C(=O)N[C@@H](CO)C(=O)N[C@H](C(=O)N[C@@H](CC(N)=O)C(=O)N[C@H](C(=O)NCC(=O)N[C@@H](CO)C(=O)N[C@@H](CC(N)=O)C(=O)N[C@H](C(=O)N1CCC[C@H]1C(N)=O)[C@@H](C)O)C(C)C)[C@@H](C)O, also called compound 12)"
